According to a protein production outcome set (Wang et al. 2014):

Assay: label from the status in PepcDB records

| Sequence | protein production |
| --- | --- |
| MSEKMRRIVEAAGGIVWRWKAGSDIANDPAIASSKSAQEQLDSIEVCIVHRPKYDDWSWPKGKLEQNETHRHAAVREIGEETGSPVKLGPYLCEVEYPLSEEGKKTRHSHDCTADTKHTLYWMAQPISADDAEHLLDAFGPVHRADVGEINDIVWVSVREARKILSHSTDKDTLAVFVDRVQEGAATAQNLLIVRHAKAESRKSWKGTDANRPITPKGAAMAFALNRELACFNPTRLATSPWLRCQETLQVLSWQTERPMEHINTLTEDAFAEHPAVSWLAFREQITQTLNSRETTAICMHRPVIGGMYDHLRGLCARKQLAKQLIAKSPYMPTGTAMSLFIIDTPQGPSIIDIQKVSPIVY | failed |
| MVDSYDDSLDGEKSKTQVKRELHALVDLGERLTTLKADVLAKLPLTDALRKALAEAPKHTANIARKRHILFIGKLMRDQDQEAILVLLDQLDASTRQYNERFHNLERWRDRLIAGDDADLEKFVIEYPDADRQQLRSLIRQAQHEVARNKPPATSRKIFKYIRELDELQ | not failed |
| MEYGFWLPIFGGWLRNVNDESMPPTFEYAKQTAQAAEQLGFSTTLIAELNLNDIKGVSAPSLEAWTTAAALAAVTDRLEIMTAVRPGFHNPAVTAKMAANIDQLSNGRFTLNVVSAWWEEEAKQYGGVFTAHDERYDRTEEFVTILKGLWKEEEFSYKGNFYELHHTHLSPKPVQKQGIKLYAGGESKRGKEVIVNHADAYVMHGGTVEEVSVKIEDMKNRRKKVTEEPLQSFGLAAYVICRHTEEEALEEWRRITDVKDDALGYAGYQDFVSKSQLEQQVKLNDYSVSNRGLRPNLIGTPEQIAERILAFEKVGVTLLLLQFSPQLEEMKRFSEKVMPLVEAKRKELIT | not failed |
| MRNTNLQAMIESAILAAFALVIDILPLSIKLPTGGSISFAMIPIFIIAYRWGFKSAFLGGLVWGLLQIVVGDAYILTPVQAFIEYFIAFAFIGFAGLFYRPIQKALLTSNENNLEQSSLGSRKDKPSSKQNEGKKVLAYIILATFIGSFARYFCHFIAGIIFWGQYAPKGQSAVLYSLIVNGSTMIGSYILCTVLLIFLFLTSPRLFKSISAYQLNANKKGA | failed |
| DLEVHGDKDDAELLIIGWGGTYGHLYETMERMRNAGKKVALAHFRFINPLPKNTAEVLQRYPKAVVAEQNLGQFALYLRGEVPGFHPLQFNRVTGQPLVMSEMVEVFTQMMEEK | failed |
| MRKKGNKLIEFVSKIMALVMAVTLLSSLPVQNVLANDSKETKGEEYEIYPIPQSIKYDNGTVTLGTDANVVFEEGIDEATKNRLLEVLSIKGINYEESNEIKEDKTNFLIGINNSEGVVDKYFTDNNLANDSHFENHDAHVVSVKGNVIAVLGKNTDSAFYGITSLKAIFNQLEGNELKELLIEDYSDGQWRGFIEGYYGIPWSNENRKDLMKFGGDFKMNSYIFAPKDDQYHSLKWREPYPAEKLAEIKEMVDVGIATKNKFIWTIHPFLKDGMNFGSEESYKADLEKIIAKFEQLYSVGVRQFGVLADDAEGEANNQVKLMEDLEKWRLQKGDVYEFIFVPKVYTKESAGGDVNNEYLKTIGTMPETIDIMWTGDVILGYVTQETFEFFEEAVGRQAFMWLNWPVNDINNKRLLMGKGEMLDPTVTNFKGIVTNPMQEAQASKVALFAIADYGWNRADFDMDKSWKDSFKYIEPDASEELYTFAKHMSDPAPNWHGLSLEESEELRPVIEEFTRKLWEKESVLDYSKVILDEYQEILDATNNFATKSKNELLKSEIKGWVDSLRDLAESTIAYINSAVAFEKGNYEEAMKYYVLGEDEYTASRSHRTPVINGQSRPEPGTRHLIPFIKDLSKIIGDNIDQVINPDTTKLTLRPYTNMSPLYWGHVQNIADGDNTRYSCMWIRNSAKEGDYVAVELNEVTKVNSITFEQGQDEGDAFNYGKFQYSMDGENWIDVDGVDYGPKMHKIVVEGLDITAKYLRFIPTKEILNNWIAVREFSVNKKDENNMKVNAYTNVEALAKNEVSISEEKATLSDLNDVTLSKGEYVGIKLNKLREVTNIVSDFTNNDNLTLETSINGVEWVEAKTLSETINARYVRIINNTEKDVTFNLNKLEAEYSNNDVNFDIRPTAEAKFEPKNLIDGKLNTAFKPLESAPKSGQLTYRISDKTDIKKFTIVQNPNTISNAIVSVRNENGWKEVGSLGKSFNEFNTEDFENVFEIKVEWDGFAPTIYEIGLSTIKEEVQVDKSKLEEAIKEVEKLKEEDYTKDSWSNLIEKLNLAKEVLSKEDATQDEVDNAIKALNEAISGLVKKDETEGPVDPEKPVDPENPDNTEKPENPEGTDKPQTPDKPEGNLPNTGGASSSIFLQLGVVMMASGAFVLKRKKR | failed |
